Results published in patent US20250032576A1, “CNP Therapy” (BIOMARIN PHARMACEUTICAL INC., priority 2021, published 2025).
Where a chain is given by its changes, count along the chain named. Values joined by “and” are separate entries in the source; they are usually repeats but may differ in a detail not shown here. Identical values can stand only once.

B1: Arg957Cys: NPR2 protein-altering variant, expression construct transfected into HEK293 cells (protein)
chain: RNLTLAVVLPEHNLSYAWAWPRVGPAVALAVEALGRALPVDLRFVSSELEGACSEYLAPLSAVDLKLYHDPDLLLGPGCVYPAASVARFASHWRLPLLTAGAVASGFSAKNDHYRTLVRTGPSAPKLGEFVVTLHGHFNWTARAALLYLDARTDDRPHYFTIEGVFEALQGSNLSVQHQVYAREPGGPEQATHFIRANGRIVYICGPLEMLHEILLQAQRENLTNGDYVFFYLDVFGESLRAGPTRATGRPWQDNRTREQAQALREAFQTVLVITYREPPNPEYQEFQNRLLIRAREDFGVELGPSLMNLIAGCFYDGILLYAEVLNETIQEGGTREDGLRIVEKMQGRRYHGVTGLVVMDKNNDRETDFVLWAMGDLDSGDFQPAAHYSGAEKQIWWTGRPIPWVKGAPPSDNPPCAFDLDDPSCDKTPLSTLAIVALGTGITFIMFGVSSFLIFRKLMLEKELASMLWRIRWEELQFGNSERYHKGAGSRLTLSLRGSSYGSLMTAHGKYQIFANTGHFKGNVVAIKHVNKKRIELTRQVLFELKHMRDVQFNHLTRFIGACIDPPNICIVTEYCPRGSLQDILENDSINLDWMFRYSLINDLVKGMAFLHNSIISSHGSLKSSNCVVDSRFVLKITDYGLASFRSTAEPDDSHALYAKKLWTAPELLSGNPLPTTGMQKADVYSFGIILQEIALRSGPFYLEGLDLSPKEIVQKVRNGQRPYFRPSIDRTQLNEELVLLMERCWAQDPAERPDFGQIKGFIRRFNKEGGTSILDNLLLRMEQYANNLEKLVEERTQAYLEEKRKAEALLYQILPHSVAEQLKRGETVQAEAFDSVTIYFSDIVGFTALSAESTPMQVVTLLNDLYTCFDAIIDNFDVYKVETIGDAYMVVSGLPGRNGQRHAPEIARMALALLDAVSSFRIRHRPHDQLRLCIGVHTGPVCAGVVGLKMPRYCLFGDTVNTASRMESNGQALKIHVSSTTKDALDELGCFQLELRGDVEMKGKGKMRTYWLLGERKGPPGLL
B2: Arg601Ser: NPR2 protein-altering variant, expression construct transfected into HEK293 cells (protein)
chain: B1 chain with R579S, C935R
B3: Ile494Ser: NPR2 protein-altering variant, expression construct transfected into HEK293 cells (protein)
chain: B1 chain with I472S, C935R
B4: Glu389Asp: NPR2 protein-altering variant, expression construct transfected into HEK293 cells (protein)
chain: B1 chain with E367D, C935R
B5: Gly209Val: NPR2 protein-altering variant, expression construct transfected into HEK293 cells (protein)
chain: B1 chain with G187V, C935R
B6: Leu1009Val: NPR2 protein-altering variant, expression construct transfected into HEK293 cells (protein)
chain: B1 chain with C935R, L987V
B7: Lys629Arg: NPR2 protein-altering variant, expression construct transfected into HEK293 cells (protein)
chain: B1 chain with K607R, C935R
B8: Leu956Gln: NPR2 protein-altering variant, expression construct transfected into HEK293 cells (protein)
chain: B1 chain with L934Q, C935R
B9: Val965Asp: NPR2 protein-altering variant, expression construct transfected into HEK293 cells (protein)
chain: B1 chain with C935R, V943D
B10: Thr861Ile: NPR2 protein-altering variant, expression construct transfected into HEK293 cells (protein)
chain: B1 chain with T839I, C935R
B11: Lys480Asn: NPR2 protein-altering variant, expression construct transfected into HEK293 cells (protein)
chain: B1 chain with K458N, C935R
B12: Thr297Met: NPR2 protein-altering variant, expression construct transfected into HEK293 cells (protein)
chain: B1 chain with T275M, C935R
B13: Glu727Gln: NPR2 protein-altering variant, expression construct transfected into HEK293 cells (protein)
chain: B1 chain with E705Q, C935R
B14: Val553Leu: NPR2 protein-altering variant, expression construct transfected into HEK293 cells (protein)
chain: B1 chain with V531L, C935R
B15: Arg562Gln: NPR2 protein-altering variant, expression construct transfected into HEK293 cells (protein)
chain: B1 chain with R540Q, C935R
B16: HIS508Asp: NPR2 protein-altering variant, expression construct transfected into HEK293 cells (protein)
chain: B1 chain with H486D, C935R
B17: Ala48Ser: NPR2 protein-altering variant, expression construct transfected into HEK293 cells (protein)
chain: B1 chain with A26S, C935R
B18: Pro301Ser: NPR2 protein-altering variant, expression construct transfected into HEK293 cells (protein)
chain: B1 chain with P279S, C935R
B19: Gly917Arg: NPR2 protein-altering variant, expression construct transfected into HEK293 cells (protein)
chain: B1 chain with G895R, C935R
B20: Lys1006Thr: NPR2 protein-altering variant, expression construct transfected into HEK293 cells (protein)
chain: B1 chain with C935R, K984T
B21: Trp42Arg: NPR2 protein-altering variant, expression construct transfected into HEK293 cells (protein)
chain: B1 chain with W20R, C935R
B22: Glu77Lys: NPR2 protein-altering variant, expression construct transfected into HEK293 cells (protein)
chain: B1 chain with E55K, C935R
B23: Ser522Pro: NPR2 protein-altering variant, expression construct transfected into HEK293 cells (protein)
chain: B1 chain with S500P, C935R

These molecules were tested on NPR2 (assay: cGMP catchpoint assay of NPR2 variants in transfected HEK293 cells treated with 20 nM CNP). Settings: cGMP normalized to RedLuciferase and to WT = 1; HEK293, 20 nM CNP, 0.4 nM IBMX; at least 3 repeat experiments with 4 replicates each.
Format: cell-based
Parameters: key to Lable: loss-of-function (LoF); Gain-of-function (GoF)
Method: Described herein is an in-vitro assay (cGMP) to assess the activities of >260 NPR2 variants. NPR2 protein-altering variants have been identified in the UK Biobank study and described in Estrada et al. (Nat Commun. 2021 12 (1): 2224). NPR2-expression constructs were transfected into HEK293 cells and 3 days later cells were treated with […] IBMX and 20 nM CNP in serum-free DMEM prior to measuring cGMP levels. The cGMP catchpoint ELISA competition assay (Molecular Devices) was used to measure cGMP according to manufacturer recommendations. RedLuc was used as a transfection control (FIG. 8A).
The NPR2 alpha-fold structure was obtained from a recent alpha-fold publication (Jumper et al., Nature 596:583-589 (2021)). A list of phenotypically characterized “high-confidence” variants was generated (Table 4). Phenotype is calculated by determining levels of cGMP using a standard curve. This value to normalized to RedLuciferase (transfection control). This value is further normalized by setting WT to 1. Average value is calculated from at least 3 repeat experiments with 4 replicates each.

Molecule	average phenotype
B1	0.01553 and 0.02954
B2	0.05949
B3	0.03638
B4	0.07079
B5	0.08861
B6	0.0847
B7	1.493
B8	0.02434
B9	0.0158
B10	0.07978 and 0.01124
B11	1.689
B12	0.03025
B13	1.705
B14	1.515
B15	1.554 and 1.629
B16	1.74
B17	0.06785
B18	0.08478
B19	0.01708
B20	0.0551
B21	0.0288
B22	0.04986
B23	0.05673

Same assay, conditions: high-confidence variant class

Molecule	Lable
B1	LoF
B2	LoF
B3	LoF
B4	LoF
B5	LoF
B6	LoF
B7	GoF
B8	LoF
B9	LoF
B10	LoF
B11	GoF
B12	LoF
B13	GoF
B14	GoF
B15	GoF
B16	GoF
B17	LoF
B18	LoF
B19	LoF
B20	LoF
B21	LoF
B22	LoF
B23	LoF
